Laboratory results reported in patent publication US9265844B2, “Protease degradable polypeptides and uses thereof” (THE METHODIST HOSPITAL SYSTEM, priority 2010, dated 2016).
Non-standard residues stand in square brackets, D forms with d. Residues, ends and D or L forms follow the SMILES beside them. *: point of attachment. Dnp = O=[N+]([O-])c1ccc(*)c([N+](=O)[O-])c1; Mca = COc1ccc2c(CC(=O)*)cc(=O)oc2c1

Legend:
Type in all cases: biochemical
[1] = biological target: T1, Cath S (Homo sapiens, UniProt P25774); assay: FRET hydrolysis of substrate e by Cath S; conditions: 90 minutes, pH 6.5
T1 construct: purchased Calbiochem, EMD Bioscience (Gibbstown, N.J.)
T1 sequence (P25774 115-331): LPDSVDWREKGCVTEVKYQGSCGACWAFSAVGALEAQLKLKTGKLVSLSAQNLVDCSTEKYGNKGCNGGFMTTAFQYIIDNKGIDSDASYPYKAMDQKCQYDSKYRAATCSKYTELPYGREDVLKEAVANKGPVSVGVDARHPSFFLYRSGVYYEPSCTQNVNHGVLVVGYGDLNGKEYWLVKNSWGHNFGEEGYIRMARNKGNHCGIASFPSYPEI
Experimental: (§1) The catalytic selectivity of Cath E and Cath D was determined fluorometrically by FRET-based hydrolysis of intramolecularly quenched peptide substrates a-e. Fluorogenic substrates a-e (10 μL, 200 μM) were incubated with 23 pmol of Cath E or Cath D in 50 mM sodium acetate buffer, pH 4, containing 150 mM NaCl, and the total volume was brought to 100 μL, using the same buffer. Cath S and Cath B were pre-activated by incubation with 100 mM sodium acetate buffer solution, pH 6.5, containing 5 mM DTT and 5 mM EDTA for 5 minutes. Cath S and Cath B (23 pmol) were incubated with 10 μL, of 200 μM fluorogenic substrate e at 100 mM sodium acetate buffer solution, pH6.5, containing 5 mM DTT and 5 mM EDTA, and the total volume was brought to 100 μL, using the same buffer. All assays were performed in triplicate in 96 well black walls, clear-bottom plates (Corning, N.Y.). The change in the fluorescence intensity was monitored over time using SpectraMax.M2^e fluorescence spectrophotometer (Molecular Devices; Sunnyvale, Calif.) at excitation wavelength (λex) of 340 nm and emission wavelength (λem) of 405 nm at 37° C. Control experiments were performed simultaneously by replacing the enzyme with assay buffer.

[2] = biological target: T2, Cath D (Homo sapiens, UniProt P07339); assay: Enzyme digestion, fragments by RP-HPLC and ESI-MS (Cath D); conditions: high dose of Cath D, overnight hydrolysis
T2 sequence (P07339 65-412): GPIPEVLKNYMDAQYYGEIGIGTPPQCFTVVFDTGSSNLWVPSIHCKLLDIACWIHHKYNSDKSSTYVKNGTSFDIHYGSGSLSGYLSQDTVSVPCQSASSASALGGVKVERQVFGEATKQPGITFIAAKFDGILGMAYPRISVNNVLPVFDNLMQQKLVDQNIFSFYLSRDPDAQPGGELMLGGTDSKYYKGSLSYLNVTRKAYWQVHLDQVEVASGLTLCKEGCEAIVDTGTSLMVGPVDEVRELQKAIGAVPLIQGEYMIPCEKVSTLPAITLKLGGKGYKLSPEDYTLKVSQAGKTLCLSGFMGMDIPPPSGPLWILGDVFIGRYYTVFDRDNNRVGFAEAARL
Experimental: Substrate e was subjected to aspartic peptidase digestion using Cath E and Cath D. […] The resulting digestion fragments were analyzed by the aforementioned analytical RP-HPLC and ESI-MS.

[3] = biological target: T3, Cath B (Homo sapiens, UniProt P07858); assay: FRET hydrolysis of substrate e by Cath B; conditions: 90 minutes, pH 6.5
T3 construct: purchased Calbiochem, EMD Bioscience (Gibbstown, N.J.)
Experimental: as §1

[4] = biological target: T4, Cath E (Homo sapiens, UniProt P14091); assay: FRET hydrolysis of quenched substrates a-e by Cath E; design: purchased Calbiochem, EMD Bioscience (Gibbstown, N.J.); conditions: for time to saturation of fluorescence on activation by Cath E: 23 pmol Cath E
T4 sequence (P14091 54-396): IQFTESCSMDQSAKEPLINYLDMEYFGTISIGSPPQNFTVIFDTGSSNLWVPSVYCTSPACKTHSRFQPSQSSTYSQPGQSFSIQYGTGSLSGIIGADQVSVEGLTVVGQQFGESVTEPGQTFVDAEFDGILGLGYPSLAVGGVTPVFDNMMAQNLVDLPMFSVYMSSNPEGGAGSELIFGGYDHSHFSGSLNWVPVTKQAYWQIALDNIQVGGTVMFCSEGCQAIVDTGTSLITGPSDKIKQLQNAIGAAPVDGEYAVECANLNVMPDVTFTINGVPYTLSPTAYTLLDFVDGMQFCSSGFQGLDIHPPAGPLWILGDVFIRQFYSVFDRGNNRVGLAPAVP
Experimental: as §1

[5] = biological target: T4, Cath E; assay: Enzyme digestion, fragments by RP-HPLC and ESI-MS (Cath E); design: purchased Calbiochem, EMD Bioscience (Gibbstown, N.J.); conditions: excess Cath E, 37° C., 3 hours
Experimental: Substrate e was subjected to aspartic peptidase digestion using Cath E and Cath D. Fluorogenic substrate e (10 μL, 100 μM) was incubated at 37° C. for 3 hours with excess Cath E or Cath D (˜119 pmol) in 100 μL, of 50 mM sodium acetate buffer (pH 4) containing 150 mM NaCl. The resulting digestion fragments were analyzed by the aforementioned analytical RP-HPLC and ESI-MS.

[6] = biological target: T2, Cath D; assay: FRET hydrolysis of quenched substrates a-e by Cath D; conditions: compared among substrates a-e
Experimental: as §1

[7] = biological target: T4, Cath E; assay: Reported specificity constants of Cath E for various substrates; design: purchased Calbiochem, EMD Bioscience (Gibbstown, N.J.); conditions: sequence 3 vs sequence 2
Text: Table 4 compiles the reported specificity constant (Kcat/Km) of Cath E and Cath D using various substrates including peptide substrate e. […] The specificity constant of Cath E for substrate e represents one of the highest reported Kcat/Km values.

[8] = substrate: COc1ccc2c(CC(=O)N[C@@H](C)C(=O)NCC(=O)N[C@@H](Cc3ccccc3)C(=O)N[C@@H](CO)C(=O)N[C@@H](CC(C)C)C(=O)N3CCC[C@H]3C(=O)N[C@@H](C)C(=O)N[C@@H](CCCCNc3ccc([N+](=O)[O-])cc3[N+](=O)[O-])C(=O)N[C@H](CCCNC(=N)N)C(N)=O)cc(=O)oc2c1; assay: Kinetic parameters of substrate e hydrolysis by Cath E; conditions: other: Cath E 6.8 nM, pH 4.0, 10 minutes, 37° C., Woolf transformation
Experimental: The initial rates of substrate e hydrolysis by Cath E were monitored using a fluorescence plate-reader. Hydrolysis of different substrate e concentrations, 10, 20, 40 and 60 μM, was performed at pH 4 in 50 mM sodium acetate buffer containing 150 mM NaCl. Cath E with various concentrations, 2.27, 4.55, 6.82 nM, were incubated with substrate e and the changes in the fluorescence intensities were monitored for 10 minutes. The substrate e hydrolysis was determined by integrating the fluorescence intensity, and plotted by the amount of the hydrolyzed substrate e over time.
The initial velocities of the hydrolysis reactions were measured between 0 and 10 minutes using several concentrations of substrate e including: 5, 10, 20, 40, 60, 80, 100 μM. All of the used substrate e concentrations were much higher than the concentrations of enzyme (2.3, 4.5 and 6.8 nM). To measure the initial rates of the substrate e proteolysis and to determine Michaelis-Menten kinetic parameters Vmax and Km of the Cath E and Cath D, the Michaelis-Menten equation was transformed using the Woolf kinetic transformation [S/v=(S/Vmax)+(Km/Vmax)]. The initial velocity was calculated from the slope during the linear phase of the reaction and S/Vplotted versus substrate e concentration. The graph representation gave straight lines and Vmax and Km were calculated by the linear regression of the line to obtain the slope and intercept. The turnover number of Cath E enzyme (Kcat) was calculated using the equation Kcat=Vmax/[Cath E], where [Cath E] represents the Cath E concentration in μM and Vmax is the maximum velocity in μM S-1. All the reactions and measurements were carried out in 50 mM sodium acetate buffers (pH 4.0) using the aforementioned setting.

COc1ccc2c(CC(=O)N[C@@H](C)C(=O)NCC(=O)N[C@@H](Cc3ccccc3)C(=O)N[C@@H](CO)C(=O)N[C@@H](CC(C)C)C(=O)N3CCC[C@H]3C(=O)N[C@@H](C)C(=O)N[C@@H](CCCCNc3ccc([N+](=O)[O-])cc3[N+](=O)[O-])C(=O)N[C@H](CCCNC(=N)N)C(N)=O)cc(=O)oc2c1 [Substrate e, Mca-Ala-Gly-Phe-Ser-Leu**Pro-Ala-Lys(Dnp)-DArg-CONH2] (Mca-AGFSLPAK(Dnp)[dR]-NH2)
fluorescent signal increase relative to that observed with Cath E [1]: less than 15% | cleavage sites [2]: two minor cleavage sites | fluorescent signal increase relative to that observed with Cath E [3]: less than 15% | time to saturation of fluorescence on activation by Cath E ([4]; 200 μM substrate, pH 4.0): ≤ 10 min | net fluorescence signal ratio (Cath E/Cath D) ([4]; 1 minute / initial time point, 200 μM substrate, 23 pmol enzyme, pH 4.0): 265 fold | cleavage site [5]: exclusively between Leu^5 and Pro^6

Mca-Ala-Gly-Phe-Ser-Leu**Gly-Pro-Lys(Dnp)-DArg-CONH2 (Mca-AGFSLGPK(Dnp)[dR]-NH2; SMILES COc1ccc2c(CC(=O)N[C@@H](C)C(=O)NCC(=O)N[C@@H](Cc3ccccc3)C(=O)N[C@@H](CO)C(=O)N[C@@H](CC(C)C)C(=O)NCC(=O)N3CCC[C@H]3C(=O)N[C@@H](CCCCNc3ccc([N+](=O)[O-])cc3[N+](=O)[O-])C(=O)N[C@H](CCCNC(=N)N)C(N)=O)cc(=O)oc2c1) [Substrate d]
time to saturation of fluorescence on activation by Cath E ([4]; 200 μM substrate, pH 4.0): did not reach saturation within the monitored period

Mca-Gly-Ser-Pro-Ala-Phe**Leu-Ala-Lys(Dnp)-DArg-CONH2 (Mca-GSPAFLAK(Dnp)[dR]-NH2; SMILES COc1ccc2c(CC(=O)NCC(=O)N[C@@H](CO)C(=O)N3CCC[C@H]3C(=O)N[C@@H](C)C(=O)N[C@@H](Cc3ccccc3)C(=O)N[C@@H](CC(C)C)C(=O)N[C@@H](C)C(=O)N[C@@H](CCCCNc3ccc([N+](=O)[O-])cc3[N+](=O)[O-])C(=O)N[C@H](CCCNC(=N)N)C(N)=O)cc(=O)oc2c1) [Substrate a]
fluorescence increase / hydrolysis upon incubation with Cath D [6]: the highest among all investigated substrates | Kcat/Km for Cath E relative to sequence 2 [7]: around 16 fold | fluorescence increase upon incubation with Cath E ([4]; compared among substrates a-e): the fastest increase and the highest fluorescence signal among all investigated substrates

B1: Cath E (Homo sapiens) (protein)
chain: IQFTESCSMDQSAKEPLINYLDMEYFGTISIGSPPQNFTVIFDTGSSNLWVPSVYCTSPACKTHSRFQPSQSSTYSQPGQSFSIQYGTGSLSGIIGADQVSVEGLTVVGQQFGESVTEPGQTFVDAEFDGILGLGYPSLAVGGVTPVFDNMMAQNLVDLPMFSVYMSSNPEGGAGSELIFGGYDHSHFSGSLNWVPVTKQAYWQIALDNIQVGGTVMFCSEGCQAIVDTGTSLITGPSDKIKQLQNAIGAAPVDGEYAVECANLNVMPDVTFTINGVPYTLSPTAYTLLDFVDGMQFCSSGFQGLDIHPPAGPLWILGDVFIRQFYSVFDRGNNRVGLAPAVP
notes: purchased Calbiochem, EMD Bioscience (Gibbstown, N.J.)
Km [8]: 19.37 µM | Vmax [8]: 2.2 μM S^−1 | kcat [8]: 322.5 S^−1 | kcat/Km [8]: 16.7 μM^−1 S^−1
